Laboratory results published in article PMC4382993.

molecular target: T1, Fur (Escherichia coli O157:H7 (EDL933?)) (UniProt P0A9B1); test: EMSA; conditions: BirA EMSA: 1 mM Tris-HCl pH 7.5, 0.1 mM EDTA, 0.2 mM DTT, 5 mM MgCl2, 10 mM KCl, 20 uM biotin, 1 mM ATP (DIG Gel Shift Kit); Fur EMSA: Invitrogen E33075 kit …
T1 sequence: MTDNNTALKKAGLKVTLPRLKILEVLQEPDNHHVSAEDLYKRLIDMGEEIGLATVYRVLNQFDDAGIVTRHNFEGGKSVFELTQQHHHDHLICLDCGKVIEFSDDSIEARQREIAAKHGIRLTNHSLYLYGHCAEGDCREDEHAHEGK

| Sequence | binding |
| --- | --- |
| GTTGGCGGCATCATTGTATCCGATGAAGATAATTGCTCTAGTTTATCAAATTGCTTATCGAGCAAAGAGGCGAGAGTATGTTGCATTATTGCTTTTGACATGTTTGCGCGATGATTATTATCTTTATGAAAAATTTGGCAAAGATACCACTTCTTATTAGACAGGAAAATACCCATTTGTTTATATTCGTTACTAACGGCCAGGATATTGCAGAGTCTGATAAATGTATCTGTTGGAACCTGACGAAAATCACCACTAAGCTCAATATATAGAACCCAGTAGTTTCCAAAATCG (double strand) [LEE Box4 fragment] | no binding |
| GACATTAAACTTGATCCTGGCGAGGCCAACAATATACAGCTTATTAATGATGCAAACACACCGCATAATAAAATTATAATAGAAAATGAATATATTAGAATAACTTTAGACCCATTAGAGCAAATAAGTATTTTATTGAATTCATTTAAAGATAATTATCTTAGCATTATTCAGGAATGATGATATGTCTCAATTAATGACCATTGGCTCACAGCCAATATTTTTAATTATTGTATTTTTTCTGTTATCATTACTGCCAA (double strand) [LEE Box5 fragment] | no binding |
| AACAGAAGACTGGTTGCTGGAGAGTCCTTCTCGGGTATCGATTGTCGAAGATAAACATATTTATTATTTTCATTTATTGAAAGACTTTTTTACATCATTACCAGATGCTTGCTTTATTGATAGTGAGCAGAGAGAGAATGCATTATTAATGATTGGTAAAGTTATCGACTATAAGGAGGAAATTATTTGATATTAATTACTCAATAATTTTTTTGTTTTCCTGAGAAAAATTATCAAGAGGTATATAGATGGATACATCAAATGCAACATCCGTTGTTAATGTGAGTGCGAGTTCTTC (double strand) [LEE Box1 fragment] | no binding |
